Reference: patent US20070107085

Target: T1, Gly-Asp-Asp-Asp-Asp-Lys-β-naphthylamide
T1 chain: GDDDDK

B1: CBM-enterokinase produced transiently in lettuce and purified on cellulose (protein)
chain: MVATAKYGTPVIDGEIDEIWNTTEEIETKAVAMGSLDKNATAKVRVLWDENYLYVLAIVKDPVLNKDNSNPWEQDSVEIFIDENNHKTGYYEDDDAQFRVNYMNEQTFGTGGSPARFKTAVKLIEGGYIVEAAIKWKTIKPTPNTVIGFNIQVNDANEKGQRVGIISWSDPTNNSWRDPSKFGNLRLIK
B1 was tested, and the Enterokinase activity was 442,7 cps/min/µg.
